Measurements from publication PMC4917648, “praja2 regulates KSR1 stability and mitogenic signaling” (Cell Death & Disease, 2016).

Biological target: T1, kinase suppressor of Ras 1 (KSR1), endogenous (human (endogenous in HEK293), UniProt Q8IVT5 1-923)
T1 sequence (looked up): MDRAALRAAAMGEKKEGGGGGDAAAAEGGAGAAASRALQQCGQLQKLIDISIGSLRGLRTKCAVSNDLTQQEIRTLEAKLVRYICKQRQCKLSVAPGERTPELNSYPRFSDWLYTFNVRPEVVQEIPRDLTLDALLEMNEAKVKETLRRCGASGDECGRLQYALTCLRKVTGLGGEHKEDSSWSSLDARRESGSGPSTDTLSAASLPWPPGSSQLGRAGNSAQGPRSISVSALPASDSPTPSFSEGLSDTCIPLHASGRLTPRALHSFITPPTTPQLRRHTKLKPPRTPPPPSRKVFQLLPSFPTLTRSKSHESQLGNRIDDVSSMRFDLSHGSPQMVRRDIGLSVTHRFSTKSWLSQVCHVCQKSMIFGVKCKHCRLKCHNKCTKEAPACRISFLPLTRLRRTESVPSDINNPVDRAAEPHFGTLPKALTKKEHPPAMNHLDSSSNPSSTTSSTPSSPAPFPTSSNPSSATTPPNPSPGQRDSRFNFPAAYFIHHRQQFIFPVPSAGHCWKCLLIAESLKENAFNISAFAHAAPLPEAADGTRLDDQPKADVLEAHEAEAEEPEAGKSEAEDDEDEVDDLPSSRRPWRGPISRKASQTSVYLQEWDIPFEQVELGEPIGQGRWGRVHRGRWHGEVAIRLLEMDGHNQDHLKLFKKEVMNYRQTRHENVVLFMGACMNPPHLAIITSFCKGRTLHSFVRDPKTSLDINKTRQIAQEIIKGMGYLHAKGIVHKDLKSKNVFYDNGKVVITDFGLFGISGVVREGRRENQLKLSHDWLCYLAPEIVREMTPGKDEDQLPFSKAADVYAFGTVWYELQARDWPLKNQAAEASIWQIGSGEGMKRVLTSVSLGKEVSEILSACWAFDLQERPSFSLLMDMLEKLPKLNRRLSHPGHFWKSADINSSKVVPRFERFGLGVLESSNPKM
Assay: cell-based or functional assay

growth of MCF-7 cells treated for 48 h with go-onERK-Flag against scrambled-Flag (cell counts): ~2 fold
B1: praja2 (endogenous) (natural protein, human (endogenous in HEK293), UniProt O43164 1-708, looked up)
chain: MSQYTEKEPAAMDQESGKAVWPKPAGGYQTITGRRYGRRHAYVSFKPCMTRHERSLGRAGDDYEVLELDDVPKENSSGSSPLDQVDSSLPSEPIFEKSETEIPTCGSALNQTTESSQSFVAVHHSEEGRDTLGSSTNLHNHSEGEYIPGACSASSVQNGIALVHTDSYDPDGKHGEDNDHLQLSAEVVEGSRYQESLGNTVFELENREAEAYTGLSPPVPSFNCEVRDEFEELDSVPLVKSSAGDTEFVHQNSQEIQRSSQDEMVSTKQQNNTSQERQTEHSPEDAACGPGHICSEQNTNDREKNHGSSPEQVVRPKVRKLISSSQVDQETGFNRHEAKQRSVQRWREALEVEESGSDDLLIKCEEYDGEHDCMFLDPPYSRVITQRETENNQMTSESGATAGRQEVDNTFWNGCGDYYQLYDKDEDSSECSDGEWSASLPHRFSGTEKDQSSSDESWETLPGKDENEPELQSDSSGPEEENQELSLQEGEQTSLEEGEIPWLQYNEVNESSSDEGNEPANEFAQPAFMLDGNNNLEDDSSVSEDLDVDWSLFDGFADGLGVAEAISYVDPQFLTYMALEERLAQAMETALAHLESLAVDVEVANPPASKESIDGLPETLVLEDHTAIGQEQCCPICCSEYIKDDIATELPCHHFFHKPCVSIWLQKSGTCPVCRRHFPPAVIEASAAPSSEPDPDAPPSNDSIAEAP
